Substitutions are numbered along the chain they refer to. Names may count otherwise.
B1: chimeric antibody CH101H1-K-1 (antibody, human IgG1, kappa, V domains shown)
VH: EVQLQESGPELVKPGASVKISCKASGYSFTSYYIHWVKQRPGQGLEWIGWIYPGSGNTKYNEKFKGKATLTADTSSSTAYMQLSSLTSEDSAVYYCARGMDYGNYYLDYWGQGTTLTVSS
VL: DIVMTQSHKFMSTSVGDRVSITCKASQDVGTAVAWYQQKPGQSPKLLIYWASTRHTGVPDRFTGSGSGTDFTLTISNVQSEDLADYFCQQYSSYLTFGAGTKLELKR
notes: Chimeric antibody (murine variable region + human constant region)
B2: positive Antibody IMAB362 (antibody, V domains shown)
VH: QVQLQQPGAELVRPGASVKLSCKASGYTFTSYWINWVKQRPGQGLEWIGNIYPSDSYTNYNQKFKDKATLTVDKSSSTAYMQLSSPTSEDSAVYYCTRSWRGNSFDYWGQGTTLTVSS
VL: DIVMTQSPSSLTVTAGEKVTMSCKSSQSLLNSGNQKNYLTWYQQKPGQPPKLLIYWASTRESGVPDRFTGSGSGTDFTLTISSVQAEDLAVYYCQNDYSYPFTFGSGTKLEIKR
B3: chimeric Antibody CH239H-2-K-6 (antibody, human IgG1, kappa, V domains shown)
VH: EVKLQESGGGLVKPGGSLKVSCAASGFTFSDYGMHWVRQAPEKGLEWVAYISRGRSTTYSTDTVKGRFTISRDSAKHTLFLQMTSLRSEDTAMYYCARGSYYGNAMDYWGQGTSVTVSS
VL: B2 VL with K18R, K36R, Y93F, N96S, D97A
notes: as for B1
B4: chimeric antibody CH394H2-K-1 (antibody, human IgG1, kappa, V domains shown)
VH: EVKLQESGAELMKPGASVKLSCKATGYTFTGYWIEWVKQRPGHGLEWIGEILPGSGSTNYNEKFKGKATFTADTSSNTAYMQLSSLTTEDSAIYYCARAPLEGLRSGFAYWGQGTLVTVSA
VL: DIVLTQSPASLAVSLGQRATISCRASESVDSYGNSFMHWYQQKPGQPPKLLIYRASNLESGIPARFSGSGSRTDFTLTINPVEADDVATYYCQQSNEDPRTFGGGTKLEIKR
notes: as for B1
B5: humanized Antibody H239H-2a-K-6a (antibody, human IgG1, kappa, V domains shown)
VH: EVQLLESGGGLVQPGGSLRLSCAASGFTFSDYGMHWVRQAPGKGLEWVAYISRGRSTTYSTDTVKGRFTISRDSSKNTLYLQMNSLRAEDTAVYYCARGSYYGNAMDYWGQGTLVTVSS
VL: DIVMTQSPDSLAVSLGERATINCKSSQSLLNSGNQRNYLTWYQQKPGQPPKLLIYWASTRESGVPDRFSGSGSGTDFTLTISSLQAEDVAVYYCQSAYSYPFTFGGGTKLEIKR
notes: Humanized antibody (humanized variable region + human constant region)
B6: humanized Antibody H239H-2b-K-6a (antibody, human IgG1, kappa, V domains shown)
VH: B5 VH with S74N
VL: B5 VL
notes: as for B5

Assays:
human CLDN18.2 [1] = molecular target: T1, human CLDN18.2 (human); experiment: flow cytometry on KATOIII cells (CLDN18.2 positive), PE anti-human IgG-Fc secondary antibody
T1 construct: The cell line is named under assay; also called claudin-18 isoform 2
Method: (§1) Flow cytometry was used to detect the binding capacity of anti-CLDN18.2 antibodies and ADCs to cells expressing CLDN18.2, and the specificity of not binding to CLDN18.1 of the antibody was further detected. […] The mixture was incubated at 4° C. for 1 h and washed twice with PBS.

human CLDN18.2 [2] = molecular target: T1, human CLDN18.2; experiment: flow cytometry on CHO-CLDN18.2 cells
human CLDN18.2 [3] = molecular target: T1, human CLDN18.2; experiment: flow cytometry on KATOIII cells (item 2)
human CLDN18.2 [4] = molecular target: T1, human CLDN18.2; experiment: cell-based or functional assay
human CLDN18.2 [5] = molecular target: T1, human CLDN18.2; experiment: flow cytometry on KATOIII cells (item 2); KATOIII cells; item 2, compared with IMAB362
Method: as §1

human CLDN18.2 [6] = molecular target: T1, human CLDN18.2; experiment: flow cytometry on KATOIII cells (item 3); KATOIII cells; item 3, compared with the humanized antibodies
Method: as §1

human CLDN18.2 [7] = molecular target: T1, human CLDN18.2; experiment: flow cytometry on CHO-CLDN18.2 cells; CHO-CLDN18.2 cells
Method: as §1

human CLDN18.2 [8] = molecular target: T1, human CLDN18.2; experiment: flow cytometry on KATOIII cells (item 3); KATOIII cells
Method: as §1

human CLDN18.1 = human CLDN18.1 (human, UniProt P56856 1-261); experiment: flow cytometry on CHO-CLDN18.1 cells, PE anti-human IgG-Fc secondary antibody
Chain of human CLDN18.1 (P56856 whole entry): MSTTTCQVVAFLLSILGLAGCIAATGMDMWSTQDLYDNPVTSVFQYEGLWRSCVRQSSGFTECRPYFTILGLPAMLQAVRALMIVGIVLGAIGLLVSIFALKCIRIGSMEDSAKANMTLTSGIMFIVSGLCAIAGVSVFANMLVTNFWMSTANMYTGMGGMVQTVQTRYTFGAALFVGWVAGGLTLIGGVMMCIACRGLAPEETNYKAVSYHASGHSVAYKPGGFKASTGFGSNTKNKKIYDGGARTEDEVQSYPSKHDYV
Method: as §1

Row | Binder | EC50 (read off the curve) (human CLDN18.2 [1]) [nM] | ADCC Reporter Bioassay EC50 (luciferase, Jurkat-NFAT-luc-FcγRIIIa effector cells) (human CLDN18.2 [4]) [nM] | CDC IC50 (cell killing rate of CHO-CLDN18.2 cells with 5% human serum complement, CCK-8) (human CLDN18.2 [4]) [nM] | EC50 (human CLDN18.2 [7]) [nM] | EC50 (human CLDN18.2 [8]) [nM] | binding result (human CLDN18.1) | further results
1 | B1 | ~10 |  |  |  |  |  | 
2 | B2 |  | 0.795 | 5.87 |  |  |  | EC50 (human CLDN18.2 [2]): 30 nM; EC50 (human CLDN18.2 [3]): 8.08 nM
3 | B3 | ~20 |  |  | 19.9 |  |  | EC50 (human CLDN18.2 [5]): 6.29 nM; EC50 (human CLDN18.2 [6]): 6.11 nM
4 | B4 | ~20 |  |  |  |  |  | 
5 | B5 |  |  |  | 22.8 | 6.2 | no binding (tested: about 330 nM) | 
6 | B6 |  | 0.0625 | 0.291 | 23.3 | 6.92 | no binding (tested: about 330 nM) | 

From patent publication US20250333498A1 (BIO THERA SOLUTIONS, published 2025)
